Experimental data taken from US20250333441A1, “POLYPEPTIDE INHIBITORS AND USES THEREOF” (Neuracle Science Co., Ltd., priority 2021, published 2025).

B1: LRRC4B (484-576): LRRC4B fragment, amino acids 484-576 of SEQ ID NO: 2 (SEQ ID NO: 8) (protein)
chain: YTYFTTVTVETLETQPGEEALQPRGTEKEPPGPTTDGVWGGGRPGDAAGPASSSTTAPAPRSSRPTEKAFTVPITDVTENALKDLDDVMKTTK
B2: LRRC4B (482-576): LRRC4B ectodomain fragment, amino acids 482-576 of SEQ ID NO: 2 (SEQ ID NO: 9) (protein)
chain: GGYTYFTTVTVETLETQPGEEALQPRGTEKEPPGPTTDGVWGGGRPGDAAGPASSSTTAPAPRSSRPTEKAFTVPITDVTENALKDLDDVMKTTK
B3: LRRC4B (498-576): LRRC4B fragment, amino acids 498-576 of SEQ ID NO: 2 (SEQ ID NO: 11) (protein)
chain: QPGEEALQPRGTEKEPPGPTTDGVWGGGRPGDAAGPASSSTTAPAPRSSRPTEKAFTVPITDVTENALKDLDDVMKTTK

Experiments:
FAM19A5 protein [1] = biological target: T1, FAM19A5 protein (Homo sapiens, UniProt Q7Z5A7); assay: ELISA binding of recombinant FAM19A5 to coated LRRC4 family ectodomains, fragments and FB peptides; conditions: coated protein or peptide, FAM19A5 up to 10 nM
T1 sequence (Q7Z5A7 44-132): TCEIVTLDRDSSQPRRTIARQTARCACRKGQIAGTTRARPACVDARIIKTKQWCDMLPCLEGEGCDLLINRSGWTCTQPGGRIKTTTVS
Method: Next, to confirm the above co-immunoprecipitation results, an ELISA assay was used to measure the binding of the FAM19A5 protein to either the full-length ectodomain of members of LRRC4 protein family or various LRRC4B ectodomain protein fragments. Specifically, an ELISA plate was coated with one of the following LRRC4B ectodomain protein, which was conjugated to human Fc (100 nM/well): (1) full-length ectodomain of LRRC4 protein (amino acid residues 39-527 of SEQ ID NO: 1) (SEQ ID NO: 4); (2) full-length ectodomain of LRRC4B protein (amino acids 36-576 of SEQ ID NO: 2; i.e., construct #7 in Table 6) (SEQ ID NO: 5); (3) full-length ectodomain of LRRC4C protein (amino acids 45-527 of SEQ ID NO: 3) (SEQ ID NO: 6); (4) LRRC4B ectodomain fragment (amino acids 453-576 of SEQ ID NO: 2; i.e., construct #11 in Table 6) (SEQ ID NO: 7); (5) LRRC4B ectodomain fragment (amino acids 484-576 of SEQ ID NO: 2; i.e., construct #12 in Table 6) (SEQ ID NO: 8); (6) LRRC4B ectodomain fragment (amino acids 482-576 of SEQ ID NO: 2) (SEQ ID NO: 9); (7) LRRC4B ectodomain fragment (amino acids 482-497 of SEQ ID NO: 2) (SEQ ID NO: 10); and (8) LRRC4B ectodomain fragment (amino acids 498-576 of SEQ ID NO: 2; i.e., construct #13 in Table 6) (SEQ ID NO: 11). Then, recombinant FAM19A5 proteins (0.005, 0.01, 0.025, 0.05, 0.1, 0.25, 0.5, 1, 2.5, 5, and 10 nM) were added to the relevant wells, and the plates were incubated at 37° C. for 1 hour. Afterwards, the amount of LRRC4B-bound FAM19A5 protein was detected using […] anti-FAM19A5 (1-65) antibody.
As further confirmation, three synthetic polypeptides comprising amino acids 484-497 of SEQ ID NO: 2 (i.e., YTYFTTVTVETLET; SEQ ID NO: 65) were constructed: (1) FB-16 (GYTYFTTVTVETLETQ; SEQ ID NO: 17), (2) FB-20 ([…]; SEQ ID NO: 18), and (3) FB-28 ([…]; SEQ ID NO: 19). The peptides differed in their total length. The ability of these polypeptides to bind to recombinant FAM19A5 protein was assessed using an ELISA assay as described above.

[2] = test system: mouse primary cortical neurons; assay: Neurite growth of primary cortical neurons (beta-tubulin III immunostaining); type: cell-based; conditions: FB peptides; treated for two days, assessed at day 3
Method: Next, primary cortical neurons (day 1 postnatal) were cultured in vitro with varying concentrations (0.006 to 60 nM) of the LRRC4B (453-576) protein fragment (i.e., amino acid residues 453-576 of SEQ ID NO: 2; SEQ ID NO: 7), and then at day 3 post-initial culture, the effect on neurite growth was assessed by immunostaining the cells with anti-beta-tubulin III antibody. Cells cultured with DMSO (“Veh”) were used as control.
Mouse hippocampal neurons were treated with LRRC4B peptides at 1 and 2 DIV to determine neurite growth. It was measured by using 3 different parameters, which are total neurites length, number of primary and secondary neurites. After the neurons were stained with beta-tubulin III at 3 DIV, neurites length and branch points were measured using Fiji (Image J, NIH, Bethesda). Individual neurons were selected by hand and these parameters were counted using the Simple neurite tracer plugin. Mouse spinal motor neurons sampled at postnatal day 1 were treated with 10 nM of NS101 and LRRC4B-peptides (dFB-dWY-JM31 and dFB-DY-JM31) at 1 and 2 DIV and immunostained with Tau-5 antibody at 3 DIV. Total neurite length and number of somas in images were measured by Neurphology Image J plugin.

[3] = biological target: binding of FAM19A5 protein to full-length ectodomain of LRRC4C protein (Homo sapiens, UniProt Q7Z5A7); assay: Competitive inhibition assay, plate coated with full-length LRRC4C ectodomain; conditions: 100 nM/well coated full-length LRRC4C ectodomain; FAM19A5 5 ng/mL
binding of FAM19A5 protein to full-length ectodomain of LRRC4C protein, sequence (Q7Z5A7 44-132): as above
Method: (§1) As described in Example 3, there appeared to be much similarity in the binding domains of the different members of the LRRC4 family. […] Then, recombinant FAM19A5 protein (5 ng/mL) was added in combination with one of the following: (i) LRRC4B (484-576) protein fragment, (ii) LRRC4B (453-576, AA) protein fragment, and (iii) synthetic FB-20 peptide. The plates were incubated at 37° C., and then, the amount of FAM19A5 protein bound to the coated LRRC4, LRRC4B, or LRRC4C proteins was measured using anti-FAM19A5 (1-65) antibody.

[4] = biological target: binding of FAM19A5 protein to full-length ectodomain of LRRC4 protein (Homo sapiens, UniProt Q7Z5A7); assay: Competitive inhibition assay, plate coated with full-length LRRC4 ectodomain; conditions: 100 nM/well coated full-length LRRC4 ectodomain; FAM19A5 5 ng/mL
binding of FAM19A5 protein to full-length ectodomain of LRRC4 protein, sequence (Q7Z5A7 44-132): as above
Method: as §1

[5] = biological target: binding of FAM19A5 protein to full-length ectodomain of the LRRC4B protein (amino acids 36-576)-hFc (Homo sapiens, UniProt Q7Z5A7); assay: Competitive inhibition assay, plate coated with full-length LRRC4B ectodomain; conditions: 100 nM coated ectodomain; FAM19A5 5 ng/mL; increasing concentrations
binding of FAM19A5 protein to full-length ectodomain of the LRRC4B protein (amino acids 36-576)-hFc, sequence (Q7Z5A7 44-132): as above
Method: Next, to further assess the role that the binding domain of the LRRC4B protein has on the interaction between FAM19A5 protein and members of the LRRC4 protein family, a competitive inhibition assay was used to determine whether different LRRC4B deletion constructs from Example 2 could inhibit the binding of FAM19A5 to the full-length ectodomain of the LRRC4B protein (i.e., amino acids 36-576 of SEQ ID NO: 2; SEQ ID NO: 5). Briefly, 100 nM of the full-length ectodomain of the LRRC4B protein was used to coat a plate, and then recombinant FAM19A5 protein (5 ng/mL) was added to the plate in combination with the following LRRC4B deletion constructs (increasing concentrations): (1) LRRC4B (453-576) (i.e., construct #11 in Table 6); (2) LRRC4B (453-576) mutant (comprises alanine substitutions at positions 488 and 489 of SEQ ID NO: 2; SEQ ID NO: 16); (3) LRRC4B (484-576) (i.e., construct #12 in Table 6); (4) LRRC4B (482-576); (5) LRRC4B (482-497); and (6) LRRC4B (498-576). The plates were incubated at 37° C., and then, the amount of FAM19A5 bound to the coated LRRC4B ectodomain protein was measured using H1RP-conjugated anti-FAM19A5 (1-65) antibody. […]

FAM19A5 protein [6] = biological target: T1, FAM19A5 protein; assay: Co-immunoprecipitation of FLAG-tagged LRRC4 family constructs with recombinant FAM19A5 in HEK293 cells; type: binding; conditions: HEK293 cells expressing FLAG-tagged construct, recombinant FAM19A5 protein (1 μM) 30 minutes; anti-FLAG immunoprecipitation
Method: To better understand the interaction between FAM19A5 and members of the LRRC4 protein family, HEK293 cells were modified to express a FLAG-tagged member of the LRRC4 protein family, i.e., LRRC4C protein, LRRC4 protein, or LRRC4B protein. Then, the HEK293 cells or primary cortical neurons were treated with recombinant FAM19A5 protein (1 μM) for 30 minutes, and the binding between FAM19A5 protein and the different members of the LRRC4 protein family was assessed using both co-immunoprecipitation and immunofluorescence assays.
For the co-immunoprecipitation assay, cell lysates from the different FAM19A5-treated HEK293 cells were collected and immunoprecipitated with an anti-FLAG antibody, anti-FAM19A5 (1-65) antibody, or a human IgG antibody (control). Immunoprecipitated proteins were immunoblotted with anti-FLAG and anti-FAM19A5 (3-2) antibodies. For the immunofluorescence assay, the HEK293 cells treated with the recombinant FAM19A5 protein were immunostained with anti-FAM19A5 (3-2) (to detect FAM19A5 protein expression) and anti-FLAG antibodies (to detect member of the LRRC4 protein family). The primary cortical neurons treated with the recombinant FAM19A5 protein were immunostained with anti-FAM19A5 (3-2) and anti-LRRC4B antibodies. The nuclei were stained with Hoechst33342 (blue).
To determine the specific motif or domain of the LRRC4B protein that is responsible for the binding to a FAM19A5 protein, various FLAG-tagged LRRC4B deletion constructs were generated (see Table 6 below). HEK293 cells were transfected with the different deletion constructs and then treated with recombinant FAM19A5 protein as described in Example 1. Then, the cell lysates from the different HEK293 cells were immunoprecipitated with the anti-FLAG antibody. The immunoprecipitated proteins were immunoblotted with anti-FLAG and anti-FAM19A5 (3-2) antibodies.
As described in Example 2, all members of the LRRC4 protein family were capable of binding to FAM19A5 protein to varying degrees. Therefore, to compare the bindings domains, the amino acid sequences of the LRRC4B, LRRC4, and LRRC4C proteins were aligned. […] Therefore, to assess whether the corresponding positions of LRRC4 and LRRC4C were important in the binding of these proteins to FAM19A5 protein, cDNAs encoding either (i) LRRC4C protein fragment (amino acids 354-527 of SEQ ID NO: 3; SEQ ID NO: 66) or (ii) LRRC4 protein fragment (amino acids 353-527 of SEQ ID NO: 1; SEQ ID NO: 67) were constructed (see Table 7). HEK293 cells were transfected to express either of the protein fragments and then treated with recombinant FAM19A5 protein as described in Example 1. Then, the cell lysates from the different HEK293 cells were immunoprecipitated with the anti-FLAG antibody. The immunoprecipitated proteins were immunoblotted with anti-FLAG and anti-FAM19A5 (3-2) antibodies.

Row | Molecule | binding to FAM19A5 protein (ELISA) (FAM19A5 protein [1]) | neurite outgrowth [2] | inhibition of FAM19A5 binding to coated LRRC4C protein [3] | inhibition of FAM19A5 binding to coated LRRC4 protein [4] | inhibition of FAM19A5 binding to coated full-length LRRC4B ectodomain protein [5] | binding to FAM19A5 protein (co-immunoprecipitation) (FAM19A5 protein [6])
1 | GYTYFTTVTVETLETQ [FB-16] | high affinity | Increased neurite outgrowth | – | – | – | –
2 | GYTYFTTVTVETLETQPGEKEPPGPTTD [FB-28] | high affinity | Increased neurite outgrowth | – | – | – | –
3 | GYTYFTTVTVETLETQPGEE [FB-20] | high affinity | Increased neurite outgrowth | able to inhibit FAM19A5 protein from binding | able to inhibit FAM19A5 protein from binding | – | –
4 | LRRC4B (482-497): LRRC4B ectodomain fragment, amino acids 482-497 of SEQ ID NO: 2 (SEQ ID NO: 10) (GGYTYFTTVTVETLET; left off: a dimerising Fc or GST) | – | – | – | – | able to inhibit the interaction | –
5 | B1 | – | – | able to inhibit FAM19A5 protein from binding | able to inhibit FAM19A5 protein from binding | able to inhibit the interaction | able to bind to the FAM19A5 protein
6 | B2 | – | – | – | – | able to inhibit the interaction | –
7 | B3 | failed to bind to FAM19A5 | – | – | – | much inferior in their ability to inhibit the interaction | –
